Results published in the supplement of paper PMC10065799, “High-throughput profiling of sequence recognition by tyrosine kinases and SH2 domains using bacterial peptide display” (eLife, 2023).

Columns and labels:
c-Src SH2 = test: SH2 binding enrichment of the phosphorylated peptide, bacterial display (enrichment ratio); higher = better substrate or ligand; peptides without Tyr show the background
SHP2-C SH2 = test: as above
Grb2 SH2 = Grb2 SH2 (UniProt P62993); test: as above
Fer (mouse) = test: phosphorylation enrichment, bacterial display (enrichment ratio); higher = better substrate or ligand; peptides without Tyr show the background
c-Src = test: as above
Fes = Fes (UniProt P07332); test: as above
MERTK = MERTK (UniProt Q12866); test: as above
EPHB1 = EPHB1 (UniProt P54762); test: as above
FGFR3 = FGFR3 (UniProt P22607); test: as above
Fyn = Fyn (UniProt P06241); test: as above
EPHB2 = EPHB2 (UniProt P29323); test: as above
AncSZ = test: as above
Hck = Hck (UniProt P08631); test: as above
c-Abl (mouse) = test: as above
Jak2 = Jak2 (UniProt O60674); test: as above
FGFR1 = FGFR1 (UniProt P11362); test: as above
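For SH2 binding enrichment of the phosphorylated peptide, bacterial display in this document: peptide library displayed on the E. coli surface as eCPX fusions, selected cells deep-sequenced, score is each peptide's frequency after selection divided by its frequency in the input.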
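For phosphorylation enrichment, bacterial display in this document: 11-residue human phosphosite peptides and single-mutation variants displayed on the E. coli surface, counted by deep sequencing, each peptide's frequency after selection divided by its frequency in the unselected input library; frequency after pTyr selection over input frequency; kinase dosed for 20-30% of maximal phosphorylation in three min.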

Chain of EPHB2 (P29323 whole entry, looked up): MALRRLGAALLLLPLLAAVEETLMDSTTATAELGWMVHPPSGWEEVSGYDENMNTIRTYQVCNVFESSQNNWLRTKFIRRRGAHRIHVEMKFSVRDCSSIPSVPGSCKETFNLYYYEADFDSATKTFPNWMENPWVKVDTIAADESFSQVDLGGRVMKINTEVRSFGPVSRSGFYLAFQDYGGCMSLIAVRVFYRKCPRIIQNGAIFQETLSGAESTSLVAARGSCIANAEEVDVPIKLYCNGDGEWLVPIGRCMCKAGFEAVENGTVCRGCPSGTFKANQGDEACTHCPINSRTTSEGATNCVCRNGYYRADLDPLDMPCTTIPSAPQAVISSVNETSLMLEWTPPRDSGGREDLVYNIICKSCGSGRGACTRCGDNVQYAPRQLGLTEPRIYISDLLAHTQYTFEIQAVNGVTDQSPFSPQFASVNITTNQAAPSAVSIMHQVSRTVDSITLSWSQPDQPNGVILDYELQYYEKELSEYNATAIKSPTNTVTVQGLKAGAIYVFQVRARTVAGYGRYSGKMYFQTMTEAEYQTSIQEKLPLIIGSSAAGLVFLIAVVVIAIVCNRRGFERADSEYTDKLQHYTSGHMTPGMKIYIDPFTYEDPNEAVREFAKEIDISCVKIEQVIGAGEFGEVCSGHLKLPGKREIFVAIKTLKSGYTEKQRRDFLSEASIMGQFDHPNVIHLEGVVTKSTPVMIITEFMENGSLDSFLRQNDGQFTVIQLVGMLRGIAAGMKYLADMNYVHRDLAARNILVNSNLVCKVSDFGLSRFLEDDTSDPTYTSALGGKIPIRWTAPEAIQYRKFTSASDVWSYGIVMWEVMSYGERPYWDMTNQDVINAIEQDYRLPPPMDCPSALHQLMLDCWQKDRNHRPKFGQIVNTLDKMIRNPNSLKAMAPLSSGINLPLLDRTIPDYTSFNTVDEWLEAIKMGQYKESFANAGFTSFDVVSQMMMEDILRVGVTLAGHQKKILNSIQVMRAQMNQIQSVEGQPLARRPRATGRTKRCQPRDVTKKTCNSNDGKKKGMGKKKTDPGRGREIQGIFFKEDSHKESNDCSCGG
Chain of FGFR3 (P22607 whole entry, looked up): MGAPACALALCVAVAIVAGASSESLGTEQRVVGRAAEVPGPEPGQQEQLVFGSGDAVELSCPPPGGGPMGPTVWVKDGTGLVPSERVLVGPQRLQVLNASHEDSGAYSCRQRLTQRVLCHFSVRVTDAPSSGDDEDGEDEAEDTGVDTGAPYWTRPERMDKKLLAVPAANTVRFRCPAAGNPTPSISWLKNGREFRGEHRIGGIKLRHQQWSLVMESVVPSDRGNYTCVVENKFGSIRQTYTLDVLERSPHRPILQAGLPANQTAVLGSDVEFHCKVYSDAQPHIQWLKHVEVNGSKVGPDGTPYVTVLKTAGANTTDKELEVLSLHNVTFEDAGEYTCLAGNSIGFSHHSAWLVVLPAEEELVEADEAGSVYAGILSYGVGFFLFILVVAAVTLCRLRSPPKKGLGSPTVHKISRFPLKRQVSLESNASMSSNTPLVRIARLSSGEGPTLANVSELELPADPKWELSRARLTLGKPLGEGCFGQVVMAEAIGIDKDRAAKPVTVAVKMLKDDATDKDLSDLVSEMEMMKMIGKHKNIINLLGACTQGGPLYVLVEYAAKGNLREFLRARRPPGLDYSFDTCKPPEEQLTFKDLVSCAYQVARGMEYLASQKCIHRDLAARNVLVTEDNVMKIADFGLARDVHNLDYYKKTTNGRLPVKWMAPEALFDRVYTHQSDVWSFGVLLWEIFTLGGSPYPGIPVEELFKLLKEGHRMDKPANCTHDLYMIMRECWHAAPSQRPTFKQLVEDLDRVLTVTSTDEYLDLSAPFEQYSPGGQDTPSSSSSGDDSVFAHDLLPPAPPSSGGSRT
Chain of Fyn (P06241 whole entry, looked up): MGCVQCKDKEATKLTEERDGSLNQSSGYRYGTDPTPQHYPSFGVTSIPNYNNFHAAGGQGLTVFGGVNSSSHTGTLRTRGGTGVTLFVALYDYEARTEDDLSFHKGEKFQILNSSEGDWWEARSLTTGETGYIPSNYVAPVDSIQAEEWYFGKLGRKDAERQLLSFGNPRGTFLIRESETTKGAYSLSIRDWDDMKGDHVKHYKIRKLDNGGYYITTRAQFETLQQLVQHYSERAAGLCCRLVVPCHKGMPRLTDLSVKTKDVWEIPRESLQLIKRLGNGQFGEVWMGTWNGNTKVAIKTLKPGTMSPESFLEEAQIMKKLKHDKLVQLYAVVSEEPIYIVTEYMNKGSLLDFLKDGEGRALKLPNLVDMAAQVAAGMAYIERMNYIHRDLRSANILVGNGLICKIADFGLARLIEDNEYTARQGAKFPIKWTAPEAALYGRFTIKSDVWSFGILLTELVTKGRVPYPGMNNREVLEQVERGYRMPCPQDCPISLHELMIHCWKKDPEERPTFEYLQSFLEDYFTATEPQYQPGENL
Chain of MERTK (Q12866 whole entry, looked up): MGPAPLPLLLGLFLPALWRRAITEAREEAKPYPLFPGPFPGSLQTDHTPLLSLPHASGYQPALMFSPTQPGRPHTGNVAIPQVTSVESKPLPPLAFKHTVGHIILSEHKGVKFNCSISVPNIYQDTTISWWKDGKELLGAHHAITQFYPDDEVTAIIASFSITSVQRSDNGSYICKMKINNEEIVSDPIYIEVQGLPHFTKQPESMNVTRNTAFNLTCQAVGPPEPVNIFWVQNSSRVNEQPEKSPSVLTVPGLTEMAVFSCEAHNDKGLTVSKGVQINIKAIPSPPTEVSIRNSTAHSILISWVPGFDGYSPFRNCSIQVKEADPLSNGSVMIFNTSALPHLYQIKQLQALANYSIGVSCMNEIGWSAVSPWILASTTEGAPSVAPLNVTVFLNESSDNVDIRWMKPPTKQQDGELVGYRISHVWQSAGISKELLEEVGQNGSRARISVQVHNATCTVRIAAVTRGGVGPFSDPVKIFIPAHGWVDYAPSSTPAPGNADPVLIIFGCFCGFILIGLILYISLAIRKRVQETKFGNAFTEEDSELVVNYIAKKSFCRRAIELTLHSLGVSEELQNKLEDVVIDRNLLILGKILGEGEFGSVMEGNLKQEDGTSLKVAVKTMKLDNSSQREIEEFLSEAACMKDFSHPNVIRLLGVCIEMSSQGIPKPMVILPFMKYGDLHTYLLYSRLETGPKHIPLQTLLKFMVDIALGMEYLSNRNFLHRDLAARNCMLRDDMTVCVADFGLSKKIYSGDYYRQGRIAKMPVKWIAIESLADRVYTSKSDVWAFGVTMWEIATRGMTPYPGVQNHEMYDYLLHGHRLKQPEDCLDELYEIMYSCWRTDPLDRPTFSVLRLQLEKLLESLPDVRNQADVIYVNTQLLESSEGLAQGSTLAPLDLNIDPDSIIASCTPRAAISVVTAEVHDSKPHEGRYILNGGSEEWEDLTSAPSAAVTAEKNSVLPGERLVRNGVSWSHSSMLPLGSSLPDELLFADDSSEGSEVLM
Chain of FGFR1 (P11362 whole entry, looked up, the tested form may be a part): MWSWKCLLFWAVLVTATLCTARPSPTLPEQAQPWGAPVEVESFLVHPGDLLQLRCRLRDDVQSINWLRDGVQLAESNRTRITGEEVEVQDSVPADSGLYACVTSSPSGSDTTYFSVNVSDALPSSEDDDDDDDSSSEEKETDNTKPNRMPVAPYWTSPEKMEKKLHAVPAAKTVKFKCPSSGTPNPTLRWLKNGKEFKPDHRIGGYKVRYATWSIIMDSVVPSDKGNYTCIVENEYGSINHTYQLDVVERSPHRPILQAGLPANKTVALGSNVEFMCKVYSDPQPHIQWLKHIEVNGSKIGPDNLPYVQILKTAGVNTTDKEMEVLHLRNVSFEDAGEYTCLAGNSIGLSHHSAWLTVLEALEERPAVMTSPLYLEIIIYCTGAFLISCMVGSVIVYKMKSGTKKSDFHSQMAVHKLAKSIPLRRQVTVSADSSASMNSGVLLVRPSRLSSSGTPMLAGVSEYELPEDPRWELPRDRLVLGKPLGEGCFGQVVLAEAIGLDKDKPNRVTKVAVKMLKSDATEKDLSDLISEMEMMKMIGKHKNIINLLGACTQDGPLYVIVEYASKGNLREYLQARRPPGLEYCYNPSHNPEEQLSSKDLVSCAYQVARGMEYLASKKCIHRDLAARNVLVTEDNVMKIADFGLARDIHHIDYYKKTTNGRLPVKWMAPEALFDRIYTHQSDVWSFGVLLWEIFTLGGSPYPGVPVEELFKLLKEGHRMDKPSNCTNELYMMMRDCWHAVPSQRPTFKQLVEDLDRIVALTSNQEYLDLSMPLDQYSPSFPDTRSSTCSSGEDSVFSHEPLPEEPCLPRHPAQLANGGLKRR
Chain of Hck (P08631 whole entry, looked up): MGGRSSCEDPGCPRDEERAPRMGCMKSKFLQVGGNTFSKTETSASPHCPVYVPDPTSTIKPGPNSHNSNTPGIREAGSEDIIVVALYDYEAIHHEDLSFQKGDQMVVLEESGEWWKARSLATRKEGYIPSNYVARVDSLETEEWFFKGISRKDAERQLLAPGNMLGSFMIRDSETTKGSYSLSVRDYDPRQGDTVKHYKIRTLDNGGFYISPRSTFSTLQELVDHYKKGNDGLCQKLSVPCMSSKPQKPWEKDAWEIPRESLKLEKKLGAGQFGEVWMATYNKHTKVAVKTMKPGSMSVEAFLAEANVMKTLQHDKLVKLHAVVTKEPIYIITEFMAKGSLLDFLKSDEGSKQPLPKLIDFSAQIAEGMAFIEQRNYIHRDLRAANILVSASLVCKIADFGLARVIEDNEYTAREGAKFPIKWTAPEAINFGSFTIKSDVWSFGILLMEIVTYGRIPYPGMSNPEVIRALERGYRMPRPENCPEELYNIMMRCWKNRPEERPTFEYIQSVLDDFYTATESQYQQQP

SH2 binding enrichment (c-Src SH2) | SH2 binding enrichment (SHP2-C SH2) | SH2 binding enrichment (Grb2 SH2) | Sequence | phosphorylation enrichment (Fer (mouse)) | phosphorylation enrichment (c-Src) | phosphorylation enrichment (Fes) | phosphorylation enrichment (MERTK) | phosphorylation enrichment (EPHB1) | phosphorylation enrichment (FGFR3) | phosphorylation enrichment (Fyn) | phosphorylation enrichment (EPHB2) | phosphorylation enrichment (AncSZ) | phosphorylation enrichment (Hck) | phosphorylation enrichment (c-Abl (mouse)) | phosphorylation enrichment (Jak2) | phosphorylation enrichment (FGFR1)
5.4 | 1.91 | 0.9 | MAHDRYAAICS [OR8H2_Y123] | 0.372 | 0.424 | 0.646 | 0.424 | 0.41 | 0.439 | 0.437 | 0.444 | 0.547 | 0.48 | 0.396 | 0.44 | 0.494
0.458 | 0.643 | 0.635 | EALDFYGEVRT [PTEN_Y155] | 0.707 | 1.01 | 1.39 | 0.37 | 0.829 | 0.872 | 1 | 0.65 | 1.23 | 0.918 | 0.825 | 1.51 | 0.501
0.348 | 0.593 | 0.901 | RTVDVYFGPRM [KIRREL3_Y332] | 0.711 | 0.72 | 1.14 | 0.591 | 0.643 | 1.23 | 1.06 | 1.33 | 1.15 | 1.5 | 0.65 | 0.618 | 0.758

More lines, now with the values behind:

Sequence | SH2 binding enrichment (c-Src SH2) | SH2 binding enrichment (SHP2-C SH2) | SH2 binding enrichment (Grb2 SH2) | phosphorylation enrichment (Fer (mouse)) | phosphorylation enrichment (c-Src) | phosphorylation enrichment (Fes) | phosphorylation enrichment (MERTK) | phosphorylation enrichment (EPHB1) | phosphorylation enrichment (FGFR3) | phosphorylation enrichment (Fyn) | phosphorylation enrichment (EPHB2) | phosphorylation enrichment (AncSZ) | phosphorylation enrichment (Hck) | phosphorylation enrichment (c-Abl (mouse)) | phosphorylation enrichment (Jak2) | phosphorylation enrichment (FGFR1)
LIGWRYDDPEV [HSPA9_Y128_R126W] | 3.68 | 1 | 1.01 | 0.416 | 0.43 | 1.24 | 0.451 | 0.544 | 0.607 | 0.538 | 0.859 | 0.984 | 0.471 | 0.652 | 1.17 | 0.419
TCFDKYTGNTY [FN1_Y101] | 0.472 | 0.754 | 0.924 | 0.534 | 0.584 | 1.16 | 0.345 | 0.519 | 0.648 | 0.511 | 0.63 | 1.3 | 0.516 | 0.717 | 1.01 | 0.463
GGPAGYLWRAS [PKLR_Y38_R40W] | 0.594 | 0.729 | 0.981 | 0.392 | 0.344 | 0.941 | 0.392 | 0.454 | 0.505 | 0.384 | 0.439 | 0.683 | 0.371 | 0.529 | 0.601 | 0.413
KAPPTYDNVLQ [CYP3A4_Y347_T349N] | 3.58 | 0.674 | 4.72 | 1.85 | 0.785 | 0.714 | 1.22 | 6.04 | 0.482 | 0.978 | 3.6 | 0.606 | 1.68 | 0.511 | 0.514 | 0.452
CEHRGHLYLAI [TEK_Y897_Y897H] | 1.21 | 1.27 | 1.16 | 0.537 | 0.377 | 1.28 | 0.374 | 0.665 | 0.722 | 0.908 | 0.441 | 1.07 | 0.417 | 0.676 | 0.833 | 0.646
